Results as given in the nanobody polyreactivity screen of Harvey et al. (2022).

test: yeast display, Sf9 membrane polyspecificity reagent, FACS + sequencing; frameworks hold sequencing errors
How it was run: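 Sorting gates, low and high (top ~1%), were placed on anti-HA fluorescence to track expression and on streptavidin fluorescence to track reagent binding. A clone's polyreactivity label is taken from the gate it came out of. The reagent was 10% biotinylated, detergent-solubilized Sf9 membrane, applied for 1 hour at 4 °C to galactose-induced yeast display cells.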

Row | Sequence | polyreactivity (PSR sort gate)
1 | QVQLVESGGGLVQAGGSLRLSCAASGSIFYSYVMGWYRQAPGKERELVAAITTGGSTYYADSVKGRFTISRDNAKNTVYLQMNSLKPEDTAVYYCAAELVGTEYDYWGQGTQVTVSS | low polyreactivity
2 | QVQLVESGGGLVQAGGSLRLSCAASGSIFYTNAMGWYRQAHGKERELVAAIRTGGSTNYADSVKGRFTISRDNAKNTDYLQMNSLTPDDTAVYYCNADVYIRDLFYPYIYTYDYWGQGTQVTVSS | low polyreactivity
3 | QVQLVESGGGLVQAGGSLRLSCAASGSIFYTNDMGWYRQAPGKERELVAAIRYSGVSTYYADSVKGRFTISRDNAKNTVYLQMNSLKPEDTAVYYCATTAYGYRSYSQSQQDMEYWGQGTQVTVSS | high polyreactivity
4 | QVQLVESGGGLVQAGGSLRLSCAASGSIFYVNAMGWNRQPPGKERELVAGITSGGRTNYADSVKGRFTISRDNAKNSVYLQMNSLKPEDTAVYYCATEIRITGLYRYDYWGQGTQVTVSS | low polyreactivity
5 | QVQLVESGGGLVQAGGSLRLSCAASGSIFYVNGMGWYRQAPGKERELVARITLSGTSTYYADSVKGRFTISRDNAKNTVYLQRNSLKPEDPAVYYCAAPYFTYGQDEDEYWGQGTQGTVSS | low polyreactivity
6 | QVQLVESGGGLVQAGGSLRLSCAASGSIFYVYAMGRYRQAPGKERELVASITRRRTNYADSVKVRFTISRDNAKNTVYLQMNSLKPEDTAVYYCAATTYVRQYATYDYWGQGTQVTVSS | high polyreactivity
7 | QVQLVESGGGLVQAGGSLRLSCAASGSIFYVYAMGRYRQAPGTEWELVAAISSGDISYYADSVKGRFTISRDNAKNTVYLQKNSLKPEDTAVYYCNAERLGNTLSPGGDDYWGQGTQVTVSS | low polyreactivity
8 | QVQLVESGGGLVQAGGSLRLSCAASGSIFYVYAMGWYIQAPGKERELVASIRWIGDRTYYADSVKGRFTISRDNAKNTVYLQMNSLKPEDTAVYYCAADPRYYGYYYLTPRYYYWGQGTQVTVSS | high polyreactivity
9 | QVQLVESGGGLVQAGGSLRLSCAASGSIFYVYAMGWYRQAPGKERELVAAINTSGGSTFYADSVKGRFTISRDNAKNTVYLQMNSLKPEDTAVYYCAAERFRYRSTDTMGYWGQGTQVTVSS | low polyreactivity
10 | QVQLVESGGGLVQAGGSLRLSCAASGSIFYVYAMGWYRQAPGKERELVAAISRRGARTYYADSVKGRFTISRDTAKYPVYLQMNSLQPEDTAVYYCNADQYSTVGYSAEYEYWGHGTQVTVSS | low polyreactivity
11 | QVQLVESGGGLVQAGGSLRLSCAASGSIFYVYAMGWYRQAPGKERELVAAITSSGTTNYADSVKGRFTISRDNAKNTVYLQMNSLKPEDTAVYYCAADFYYYKKQYDYWGQGTQVTVSS | low polyreactivity
12 | QVQLVESGGGLVQAGGSLRLSCAASGSIFYVYAMGWYRQAPGKERELVADITTRDGDTYYADSVKGRFTISRDNAKNTVYLQMNSLKPEDTAVYYCAADLNAYPQRAYDYWGQGTQVTVSS | low polyreactivity
13 | QVQLVESGGGLVQAGGSLRLSCAASGSIFYVYAMGWYRQAPGKEREMVAAISKSGGSTYYADSVKGRFTISRDNAKNTVYLQMNSLKPEDTADYYCAAYFSYGSIIEDYWGQGTQVTVSS | low polyreactivity
14 | QVQLVESGGGLVQAGGSLRLSCAASGSIFYWNAMGWYRQAPGKEREFVADISQSGDSTYYADSVKGRFTISRDNAKNTVYLQMNSLKQEDTAVYYCAAQFLSYAWDYDYWGQGTQVTVSS | low polyreactivity
15 | QVQLVESGGGLVQAGGSLRLSCAASGSIFYWNAMGWYRQAPGKERELVAGISQRGGRTSYADSVKGRFTISRDNAKNTVYLQMNSLKPEDTAVYYCAATSVYPRSGSSRYDYWGQGTQVTVSS | low polyreactivity
16 | QVQLVESGGGLVQAGGSLRLSCAASGSIFYWNAMGWYRQAPWKERELVASINWSGSTYYADSVKGSFTISRDNAKNTVYLQMNSLKPEDTAVYYCNTDPRVSDASADMEYWGQGTQVTVSS | high polyreactivity
